Assay [1] deals with T1, cell surface human OSMR protein (as used in the ELISA for EC50) (human, UniProt Q99650 28-739, limits assumed).
T1 sequence (looked up): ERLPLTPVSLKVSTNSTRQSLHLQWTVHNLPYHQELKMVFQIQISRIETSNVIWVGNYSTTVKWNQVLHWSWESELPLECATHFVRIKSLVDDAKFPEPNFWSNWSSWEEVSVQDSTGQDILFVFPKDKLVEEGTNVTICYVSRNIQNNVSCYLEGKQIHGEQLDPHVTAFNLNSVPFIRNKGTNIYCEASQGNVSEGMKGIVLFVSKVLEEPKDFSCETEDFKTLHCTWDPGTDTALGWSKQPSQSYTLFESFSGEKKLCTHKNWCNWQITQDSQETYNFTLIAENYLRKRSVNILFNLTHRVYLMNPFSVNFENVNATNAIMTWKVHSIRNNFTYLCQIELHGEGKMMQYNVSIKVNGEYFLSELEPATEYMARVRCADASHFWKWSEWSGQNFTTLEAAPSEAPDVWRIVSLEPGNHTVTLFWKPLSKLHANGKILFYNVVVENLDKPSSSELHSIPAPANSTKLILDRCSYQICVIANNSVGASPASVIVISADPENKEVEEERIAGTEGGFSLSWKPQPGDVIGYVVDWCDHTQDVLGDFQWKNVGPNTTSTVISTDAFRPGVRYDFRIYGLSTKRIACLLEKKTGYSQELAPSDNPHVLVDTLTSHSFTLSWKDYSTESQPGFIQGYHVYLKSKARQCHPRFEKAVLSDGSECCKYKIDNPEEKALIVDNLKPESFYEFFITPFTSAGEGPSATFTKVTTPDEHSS
Kind of assay: ELISA. (ELISA stands for enzyme-linked immunosorbent assay.)

In assay [2] the target is T2, recombinant OSMR protein (Sino Biologicals, 11226-H08H), extracellular domain of OSMR (UniProt Q99650 28-740).
T2 construct: extracellular domain; also called OSMR antigen
T2 sequence (looked up): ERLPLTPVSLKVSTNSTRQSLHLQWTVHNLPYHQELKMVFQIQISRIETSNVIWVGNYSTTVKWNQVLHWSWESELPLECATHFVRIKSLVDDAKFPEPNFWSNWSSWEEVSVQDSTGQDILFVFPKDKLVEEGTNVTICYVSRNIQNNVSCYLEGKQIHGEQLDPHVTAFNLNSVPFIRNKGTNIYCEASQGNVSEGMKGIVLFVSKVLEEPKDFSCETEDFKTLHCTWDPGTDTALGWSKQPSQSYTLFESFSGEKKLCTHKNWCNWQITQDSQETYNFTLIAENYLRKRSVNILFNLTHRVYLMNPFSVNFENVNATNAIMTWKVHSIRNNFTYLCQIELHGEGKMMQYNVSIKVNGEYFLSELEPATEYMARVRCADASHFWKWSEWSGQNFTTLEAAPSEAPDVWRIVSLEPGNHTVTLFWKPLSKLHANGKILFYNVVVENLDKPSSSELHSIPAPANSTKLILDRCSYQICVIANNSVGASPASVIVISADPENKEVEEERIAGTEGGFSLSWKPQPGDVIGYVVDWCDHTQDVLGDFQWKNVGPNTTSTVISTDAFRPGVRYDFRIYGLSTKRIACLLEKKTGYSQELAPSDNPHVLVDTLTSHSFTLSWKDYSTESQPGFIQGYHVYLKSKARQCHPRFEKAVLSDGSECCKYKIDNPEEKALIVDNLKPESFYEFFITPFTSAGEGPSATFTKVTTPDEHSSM
Kind of assay: screening of full-length IgG1 clones on recombinant OSMR extracellular domain.

B1: B18 monoclonal antibody (antibody, V domains shown)
VH: not shown
VL: DVVMTQSPLSLPVTPGEPASISCRSSQSLLHSNGYNYLDWYMQKPGQSPQVLIYLGSNRASGVPDRFSGSGSGTDFTLKISRVEAEDVGVYYCMQALQTPHTFGQGTTVDIK
notes: also called B18 mAb; B18 antibody clones
In the case of B1, the binding result in assay [1] was “no binding”; in assay [2] it was “binds”.
